# T1: DnaE1 (Mycobacterium tuberculosis, UniProt P9WNT7)
# T1 construct: full-length
# T1 sequence (P9WNT7 1-1184): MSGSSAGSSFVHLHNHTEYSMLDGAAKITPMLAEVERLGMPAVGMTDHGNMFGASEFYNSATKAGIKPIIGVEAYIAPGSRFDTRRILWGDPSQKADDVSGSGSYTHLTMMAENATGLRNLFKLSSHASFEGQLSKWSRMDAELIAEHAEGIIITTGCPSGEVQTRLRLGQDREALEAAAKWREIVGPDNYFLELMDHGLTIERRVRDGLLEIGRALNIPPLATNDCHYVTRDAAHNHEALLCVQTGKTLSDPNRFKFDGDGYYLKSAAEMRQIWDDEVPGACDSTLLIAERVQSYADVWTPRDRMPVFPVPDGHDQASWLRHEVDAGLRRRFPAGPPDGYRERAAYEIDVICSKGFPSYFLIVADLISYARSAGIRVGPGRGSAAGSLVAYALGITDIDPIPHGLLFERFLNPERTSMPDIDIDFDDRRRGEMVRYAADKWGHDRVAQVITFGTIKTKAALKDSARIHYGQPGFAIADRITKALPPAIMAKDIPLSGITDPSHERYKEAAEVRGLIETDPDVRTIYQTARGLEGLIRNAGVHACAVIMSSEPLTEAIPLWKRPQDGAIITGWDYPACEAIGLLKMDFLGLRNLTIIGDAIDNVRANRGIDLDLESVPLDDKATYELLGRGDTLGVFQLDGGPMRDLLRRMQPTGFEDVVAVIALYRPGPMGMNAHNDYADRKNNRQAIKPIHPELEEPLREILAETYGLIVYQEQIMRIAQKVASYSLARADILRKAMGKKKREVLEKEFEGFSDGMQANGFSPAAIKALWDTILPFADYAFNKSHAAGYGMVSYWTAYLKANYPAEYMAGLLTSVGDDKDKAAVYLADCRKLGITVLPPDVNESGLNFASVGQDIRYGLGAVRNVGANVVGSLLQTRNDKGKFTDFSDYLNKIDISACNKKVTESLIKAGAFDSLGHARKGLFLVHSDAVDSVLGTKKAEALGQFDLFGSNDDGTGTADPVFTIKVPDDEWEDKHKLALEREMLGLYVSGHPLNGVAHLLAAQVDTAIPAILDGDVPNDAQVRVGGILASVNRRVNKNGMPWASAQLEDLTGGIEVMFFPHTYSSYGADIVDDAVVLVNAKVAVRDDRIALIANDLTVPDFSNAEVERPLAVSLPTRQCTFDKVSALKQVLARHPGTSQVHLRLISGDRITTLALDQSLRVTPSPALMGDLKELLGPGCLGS
# T2: DnaE1 (replicative DNA polymerase) (Mycobacterium tuberculosis, UniProt P9WNT7 1-1184)
# T2 sequence: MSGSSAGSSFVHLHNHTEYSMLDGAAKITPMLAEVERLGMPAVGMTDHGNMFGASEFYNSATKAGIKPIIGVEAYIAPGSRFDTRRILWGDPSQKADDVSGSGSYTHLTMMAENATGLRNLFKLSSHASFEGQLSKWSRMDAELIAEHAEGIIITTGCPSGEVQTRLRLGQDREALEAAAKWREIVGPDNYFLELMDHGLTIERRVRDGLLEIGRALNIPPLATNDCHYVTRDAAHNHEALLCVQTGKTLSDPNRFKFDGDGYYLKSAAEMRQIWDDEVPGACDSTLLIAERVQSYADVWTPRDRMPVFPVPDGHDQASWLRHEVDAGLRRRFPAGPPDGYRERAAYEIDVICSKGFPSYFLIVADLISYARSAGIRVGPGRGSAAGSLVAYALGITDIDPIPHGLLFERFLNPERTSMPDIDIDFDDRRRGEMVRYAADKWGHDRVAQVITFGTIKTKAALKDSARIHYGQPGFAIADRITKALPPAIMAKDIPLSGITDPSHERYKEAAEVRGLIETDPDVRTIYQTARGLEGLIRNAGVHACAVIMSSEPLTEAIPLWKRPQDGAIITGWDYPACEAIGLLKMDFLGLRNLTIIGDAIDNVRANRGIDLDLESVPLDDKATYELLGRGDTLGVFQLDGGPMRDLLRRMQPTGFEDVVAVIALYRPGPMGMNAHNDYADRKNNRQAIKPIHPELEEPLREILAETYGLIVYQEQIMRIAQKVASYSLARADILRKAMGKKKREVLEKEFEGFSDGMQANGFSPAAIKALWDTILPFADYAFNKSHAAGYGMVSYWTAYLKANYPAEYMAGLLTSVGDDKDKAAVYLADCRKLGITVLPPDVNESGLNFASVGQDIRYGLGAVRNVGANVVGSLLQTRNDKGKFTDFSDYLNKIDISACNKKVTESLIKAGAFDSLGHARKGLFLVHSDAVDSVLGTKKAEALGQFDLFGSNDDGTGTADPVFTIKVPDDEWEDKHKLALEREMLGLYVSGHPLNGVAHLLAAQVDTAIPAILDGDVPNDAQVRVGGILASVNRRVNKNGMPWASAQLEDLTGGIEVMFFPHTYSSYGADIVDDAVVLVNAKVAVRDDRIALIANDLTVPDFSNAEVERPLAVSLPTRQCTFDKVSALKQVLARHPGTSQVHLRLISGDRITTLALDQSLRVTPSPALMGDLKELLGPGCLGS
# T3: DnaE (replicative DNA polymerase) (Staphylococcus aureus, UniProt Q9F1K0 1-1065)
# T3 sequence: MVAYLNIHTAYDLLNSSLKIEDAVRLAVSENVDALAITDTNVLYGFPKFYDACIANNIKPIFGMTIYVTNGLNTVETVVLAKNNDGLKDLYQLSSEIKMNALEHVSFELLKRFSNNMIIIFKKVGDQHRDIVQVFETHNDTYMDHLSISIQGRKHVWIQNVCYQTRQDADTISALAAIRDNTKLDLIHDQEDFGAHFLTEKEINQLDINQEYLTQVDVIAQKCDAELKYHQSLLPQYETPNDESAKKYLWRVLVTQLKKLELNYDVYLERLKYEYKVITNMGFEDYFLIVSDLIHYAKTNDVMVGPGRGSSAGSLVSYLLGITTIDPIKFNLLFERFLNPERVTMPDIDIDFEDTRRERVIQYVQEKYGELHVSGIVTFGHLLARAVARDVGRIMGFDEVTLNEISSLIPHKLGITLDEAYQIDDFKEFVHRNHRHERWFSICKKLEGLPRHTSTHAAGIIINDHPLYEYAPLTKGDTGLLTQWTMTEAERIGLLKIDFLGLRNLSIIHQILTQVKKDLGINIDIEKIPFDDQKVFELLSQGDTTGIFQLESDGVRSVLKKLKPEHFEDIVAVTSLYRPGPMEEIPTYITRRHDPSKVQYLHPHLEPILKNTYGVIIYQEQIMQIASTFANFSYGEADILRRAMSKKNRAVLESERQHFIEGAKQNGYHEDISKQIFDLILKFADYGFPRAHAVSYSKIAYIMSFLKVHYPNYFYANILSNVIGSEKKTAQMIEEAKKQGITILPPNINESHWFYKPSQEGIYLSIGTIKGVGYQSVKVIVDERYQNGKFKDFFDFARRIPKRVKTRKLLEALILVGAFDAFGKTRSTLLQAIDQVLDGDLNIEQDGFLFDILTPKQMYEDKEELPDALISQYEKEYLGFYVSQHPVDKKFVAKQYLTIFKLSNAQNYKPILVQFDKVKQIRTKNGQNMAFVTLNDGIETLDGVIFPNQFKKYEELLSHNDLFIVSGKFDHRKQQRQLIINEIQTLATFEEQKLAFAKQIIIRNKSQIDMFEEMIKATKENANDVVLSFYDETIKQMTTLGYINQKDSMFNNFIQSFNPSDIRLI
# How the values were obtained:
# DnaE = DnaE (Staphylococcus aureus, UniProt Q5HF71); assay: real-time fluorescence-quench DNA polymerase assay (text […]; Figure […] legend […]); format: biochemical
# [1] = biological target: T4, DNA polymerase III α (Pol IIIα) (Escherichia coli, UniProt P10443); assay: real-time fluorescence-quench DNA polymerase assay; format: biochemical
# T4 construct: gene dnaE
# DnaE1 = biological target: T1, DnaE1; assay: ([…] Å) with DNA; […]; format: biochemical
# [2] = biological target: T2, DnaE1 (replicative DNA polymerase); assay: fluorescence anisotropy; settings: protein: recombinant; label: 5'-Cy3 on primer (strand 1); 24 bp duplex, 5' overhang 30 nt on template
# DnaE S765L = DnaE S765L (Staphylococcus aureus, UniProt Q9F1K0 1-1065, S765L); assay: fluorescence anisotropy; Anisotropy: 5 nM DNA, 25 mM HEPES pH 7.5, 50 mM potassium glutamate, 2 mM DTT, 0.5 mg/mL BSA, 24 °C. Cryo-EM: 20 mM PIPES pH 7.0, 50 mM potassium glutamate, 5 mM MgCl2, 2 mM DTT, 0.01% Tween-20; settings: protein: recombinant; label: 5'-Cy3 on primer (strand 1); 24 bp duplex, 5' overhang 30 nt on template
# [3] = biological target: T3, DnaE (replicative DNA polymerase); assay: as above; settings: protein: recombinant; label: 5'-Cy3 on primer (strand 1); 24 bp duplex, 5' overhang 30 nt on template
# [4] = biological target: Pol IIIα (replicative DNA polymerase) (Escherichia coli, UniProt P10443 1-1160); assay: as above; settings: protein: recombinant; label: 5'-Cy3 on primer (strand 1); 24 bp duplex, 5' overhang 30 nt on template
# [5] = biological target: T2, DnaE1 (replicative DNA polymerase); assay: cryo-EM structure (2.9 Å); 10 uM nargenicin, 5 mM MgCl2; settings: protein: recombinant
# T4 sequence (P10443 whole entry): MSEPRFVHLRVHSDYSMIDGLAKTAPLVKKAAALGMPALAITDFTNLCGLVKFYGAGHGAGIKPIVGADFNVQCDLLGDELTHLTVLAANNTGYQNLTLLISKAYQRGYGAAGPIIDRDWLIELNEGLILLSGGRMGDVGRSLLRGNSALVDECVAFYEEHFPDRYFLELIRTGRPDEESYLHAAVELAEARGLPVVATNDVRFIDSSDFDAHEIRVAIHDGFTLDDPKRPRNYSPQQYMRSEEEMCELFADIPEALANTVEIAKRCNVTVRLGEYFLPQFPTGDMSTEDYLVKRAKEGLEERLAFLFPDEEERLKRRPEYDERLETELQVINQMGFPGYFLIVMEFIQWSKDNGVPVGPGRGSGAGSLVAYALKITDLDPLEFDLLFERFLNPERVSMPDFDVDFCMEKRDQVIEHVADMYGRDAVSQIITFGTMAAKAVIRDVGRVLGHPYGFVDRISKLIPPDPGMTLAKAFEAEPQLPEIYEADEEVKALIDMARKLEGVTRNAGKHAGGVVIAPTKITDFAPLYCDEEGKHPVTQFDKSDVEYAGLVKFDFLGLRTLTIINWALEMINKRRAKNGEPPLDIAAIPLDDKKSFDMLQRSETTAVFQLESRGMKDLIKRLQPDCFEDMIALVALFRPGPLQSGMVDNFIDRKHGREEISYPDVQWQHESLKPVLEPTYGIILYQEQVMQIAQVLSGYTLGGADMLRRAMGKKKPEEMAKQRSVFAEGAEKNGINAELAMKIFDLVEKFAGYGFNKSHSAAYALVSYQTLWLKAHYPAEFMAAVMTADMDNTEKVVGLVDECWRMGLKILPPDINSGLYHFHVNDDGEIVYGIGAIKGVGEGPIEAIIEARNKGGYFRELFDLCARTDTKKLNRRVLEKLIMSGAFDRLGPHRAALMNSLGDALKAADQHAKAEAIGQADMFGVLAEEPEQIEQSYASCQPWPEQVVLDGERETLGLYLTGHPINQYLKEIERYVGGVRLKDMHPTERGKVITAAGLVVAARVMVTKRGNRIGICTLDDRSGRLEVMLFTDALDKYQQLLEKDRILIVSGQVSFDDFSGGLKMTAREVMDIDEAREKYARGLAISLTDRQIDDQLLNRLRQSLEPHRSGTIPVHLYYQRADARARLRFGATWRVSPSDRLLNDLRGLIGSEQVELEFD
molecule,measurement,setting,value
COC1CC2C=CC3C4OC2(/C(C)=C/C(C)C(C(C)O)OC1=O)C3C(O)C(C)C4OC(=O)c1ccc[nH]1 (centres unmarked) [nargenicin],IC50,DnaE,0.006 µM
same,IC50,[1],13 µM
same,IC50,DnaE1,0.125 µM
primed DNA substrate (anisotropy) (dsDNA) DNA 1: GGTAACGCCAGGGTTTTCCCAGTC DNA 2: CGCTCACTGGCCGTCGTTTTACAACGTCGTGACTGGGAAAACCCTGGCGTTACC,Kd,[2],0.25 µM
same,Kd,DnaE S765L,0.085 µM
same,Kd,[3],0.006 µM
same,Kd,[4],12 µM
"cryo-EM primer/template substrate (dsDNA, phosphorothioate bond between the last two nt of the primer (T*T)) DNA 1: GCACCTAAAGTTGGGAGTCCTTCGTCCTT DNA 2: GATAGAGCAGAAGGACGAAGGACTCCCAACTTTAGGTG",binding result,[5],binds

# — PMC8922275, “DNA-Dependent Binding of Nargenicin to DnaE1 Inhibits Replication in Mycobacterium tuberculosis” (ACS Infectious Diseases, 2022)
